Results taken from the supplement of paper PMC10724198.
± gives the standard deviation of the averaged measurements.

Test system: Saccharomyces cerevisiae
Experiment: protein stability index of tFT-peptide fusion (C-terminal peptide) (PSI (0-1 scale)); higher = more stable (slower turnover)
Conditions: genetic background: wild type; temperature: 30 C
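Note: PSI is a weighted mean of sequencing reads over stability bins, variants kept only with over 10 reads, mCherry proximal and sfGFP distal, peptide attached via GGGS linker.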

Sequence	protein stability index
RKEKRKRRGEAN	0.662 ± 0.061
RKGDRAQRWRDL	0.655 ± 0.12
RKIRKKRERKGE	0.714 ± 0.2
RKKGKLESKKQK	0.742 ± 0.12
RKKINKRLCLGN	0.692 ± 0.033
RKKQYEKKSEKP	0.689 ± 0.11
RKLYMCMRTKGD	0.673 ± 0.046
RKNDSKKNCVKE	0.705 ± 0.089
RKPTSFFSRIVN	0.611 ± 0.026
RKRPTQAMIFNI	0.5568 ± 0.0013
RKSERIKNKNGR	0.715 ± 0.037
RKSKRLDQSCTR	0.703 ± 0.035
RKTGTGETRTRR	0.691 ± 0.015
RKVKGKKRYTEG	0.662 ± 0.058
RKYKNKRSKKEK	0.755 ± 0.1
RLCLFPVAPLLS	0.599 ± 0.03
RLCLLVVPLLPP	0.665 ± 0.055
RLCPWNLSDADL	0.71 ± 0.0091
RLDRGLHIKAIT	0.704 ± 0.014
RLDVGAGGCLGG	0.716 ± 0.021
RLFIALFPPFYL	0.64 ± 0.05
RLGAEYNWVNLS	0.6362 ± 0.0026
RLGALNHPLAAP	0.7183 ± 0.0057
RLGARGGSRGRP	0.736 ± 0.012
RLGFCGLGHRCE	0.677 ± 0.033
RLGLRWSPHSSP	0.707 ± 0.01

Sequence	protein stability index
RLGLSIASAPCL	0.693 ± 0.062
RLIEDREWLGSR	0.721 ± 0.014
RLIIRYESYTSD	0.709 ± 0.013
RLLFLPPPPPPP	0.654 ± 0.082
RLLLPSTLLPPR	0.761 ± 0.13
RLLLSRCSFLPT	0.663 ± 0.03
RLLPLPRRTPPL	0.852 ± 0.11
RLLPPSLAQRNN	0.5909 ± 0.0011
RLLRDFQSVGGD	0.6498 ± 0.0014
RLPAPPPHPPPP	0.7037 ± 0.0013
RLPPGATPYPPR	0.711 ± 0.013
RLPPRPPPRPPT	0.6514 ± 0.006
RLPRSPPLPSCR	0.726 ± 0.016
RLPSAPPRQPTH	0.667 ± 0.061
RLRPPPRTLPTP	0.722 ± 0.011
RLRQTLPTWVTT	0.665 ± 0.015
RLRSSTAAAAIV	0.713 ± 0.082
RLRSWLGIALFL	0.642 ± 0.0067
RLSSLRAFSLRS	0.721 ± 0.026
RLSSLSPFLVLS	0.589 ± 0.0084
RLTALVYFISPL	0.597 ± 0.017
RLVFDTGPPFIN	0.657 ± 0.042
RLWFPSARLRFT	0.678 ± 0.06
RMGAEDTGCRRP	0.657 ± 0.062
RMINHGNKAKFS	0.662 ± 0.016
RMIQKFGLGVVV	0.5613 ± 0.0047

Sequence	protein stability index
RMNSCVLLDGFA	0.687 ± 0.03
RNFAPPFLPSPH	0.711 ± 0.066
RNIKIGKYMKRI	0.729 ± 0.034
RNIQKLNKIKKK	0.753 ± 0.15
RNNRQAREKKKQ	0.701 ± 0.15
RNPLDGDSGSRG	0.699 ± 0.0076
RNRDKKGDMILK	0.691 ± 0.0086
RNRRKTLMETRS	0.695 ± 0.082
RNSDPRLGGNTF	0.687 ± 0.052
RNTRAPTRNVPE	0.674 ± 0.028
RNTYKKREKNKK	0.7363 ± 0.0025
RNWCHGTVLNRL	0.736 ± 0.13
RPASPASSPFFP	0.70509 ± 0.00065
RPCSVPFSNTSP	0.666 ± 0.0067
RPEKGLESGQRV	0.69 ± 0.064
RPLALHSYPCSP	0.6771 ± 0.00072
RPLPASTTLCVL	0.689 ± 0.11
RPLSSPPTRSRA	0.751 ± 0.038
RPLVSRLPIFIR	0.506 ± 0.014
RPPCLRPPPPPL	0.727 ± 0.012
RPPIGTLCSINF	0.614 ± 0.13
RPPNPPPALPPL	0.701 ± 0.056
RPPPLPPRPSPP	0.752 ± 0.12
RPPPPPPPPPSP	0.723 ± 0.089
RPPSPILPSSSP	0.714 ± 0.077
RPPVPSLLPEPT	0.6313 ± 0.0043

Sequence	protein stability index
RPRPPLASPSPP	0.7005 ± 0.0013
RPRYITQGLPLL	0.738 ± 0.026
RPSGFVGSDVRV	0.629 ± 0.071
RPSNPPTKSQPS	0.665 ± 0.019
RPSPPALPRFLL	0.703 ± 0.0073
RPSTHPPATPPR	0.695 ± 0.07
RPSTSRKVKIDV	0.663 ± 0.066
RPTRSLYLLPLI	0.699 ± 0.019
RQESYYLYHTAR	0.717 ± 0.032
RQLPPRAPAARG	0.661 ± 0.028
RQNPRLPPPFQP	0.731 ± 0.052
RQTNEHNNQNER	0.741 ± 0.082
RRCCLDPGGLLS	0.607 ± 0.0078
RRCGETTEQTVR	0.71 ± 0.059
RRCRPPTRRTKE	0.587 ± 0.053
RRCSCGFLCIDS	0.672 ± 0.14
RRDELINVVKRT	0.717 ± 0.072
RRDIPLSPVAFS	0.702 ± 0.031
RREKGEARGRGG	0.618 ± 0.013
RREKRPMKKGGR	0.6126 ± 0.002
RRERQNEKMTYH	0.656 ± 0.078
RRESQRRYRRML	0.714 ± 0.059
RRFLRRISAFAS	0.558 ± 0.06
RRFQYLTENYQK	0.6208 ± 0.0047
RRGAGCAAVGLG	0.618 ± 0.024
RRGRGGGRRVDA	0.731 ± 0.021

Sequence	protein stability index
RRKGRLTAGWGR	0.713 ± 0.025
RRLFVMDKRKRK	0.716 ± 0.033
RRLSVPFSPSAL	0.733 ± 0.032
RRMHLNMKEREL	0.896 ± 0.054
RRMSQQCLPRQR	0.739 ± 0.047
RRNGVVGRLGWV	0.7 ± 0.051
RRPCTSSHAKAP	0.692 ± 0.021
RRPQPPHKTAMP	0.701 ± 0.078
RRRQAEEDERNG	0.658 ± 0.07
RRRTDDSTPGRA	0.686 ± 0.025
RRSSLGIYWIYS	0.61 ± 0.037
RRTTGLGWSGRP	0.644 ± 0.025
RRVNDLGPPMRN	0.779 ± 0.092
RRVRRRRTGGAW	0.669 ± 0.005
RRVVIVSGWGWG	0.591 ± 0.064
RRWSPPGLGCIE	0.735 ± 0.019
RSETGYGTSWGA	0.627 ± 0.026
RSFRCWVQGYCG	0.654 ± 0.044
RSGLARPSPLTR	0.67445 ± 0.00024
RSGVSCPRVDDR	0.643 ± 0.05
RSGWRLLHLTTL	0.613 ± 0.013
RSHPTPQAHPSA	0.728 ± 0.051
RSKPIQAIPNPV	0.69 ± 0.03
RSLRLPPRTPLP	0.652 ± 0.04
RSLVAATLSSLG	0.735 ± 0.045
RSPNSSPPPSIS	0.648 ± 0.014

Sequence	protein stability index
RSPPHSNLAHCI	0.684 ± 0.037
RSPPPVPELTRL	0.7042 ± 0.0051
RSPYSSLHNPLC	0.706 ± 0.016
RSRSIPTTLCLP	0.655 ± 0.026
RSSLAVSTKVER	0.639 ± 0.02
RSSPPPRHDPSP	0.696 ± 0.088
RSSRGGFAFVYR	0.676 ± 0.03
RSSVTIIGDINK	0.619 ± 0.016
RSTGFHRVSCGI	0.72 ± 0.06
RSTTRSTLSLHV	0.701 ± 0.021
RSVIEHKMRKKR	0.682 ± 0.026
RTAYLLRCLTTD	0.681 ± 0.026
RTGKVKNINISI	0.71064 ± 0.00038
RTHRKNRRYKKN	0.639 ± 0.0072
RTKLFGIVGRQL	0.659 ± 0.036
RTLWGYCPRSPL	0.718 ± 0.021
RTRKARTHGRAQ	0.679 ± 0.0092
RTSEAGKQHEWK	0.695 ± 0.0074
RTSKSCVEFTMG	0.661 ± 0.011
RTTAGINAFPGV	0.6184 ± 0.0051
RTTSFVLSYRRE	0.66 ± 0.019
RTWDNTRDLDEL	0.656 ± 0.019
RVCCGVKDSEES	0.619 ± 0.0062
RVCFSLGAEFSF	0.665 ± 0.055
RVCVERFDSLTL	0.733 ± 0.08
RVDAWLEGKTVR	0.734 ± 0.02

Sequence	protein stability index
RVGAVCWSIGLL	0.68 ± 0.03
RVGWCGGGRGGR	0.658 ± 0.048
RVGWCPCTGDRR	0.663 ± 0.019
RVHRSVVGYRRC	0.611 ± 0.025
RVKMEFGRYRIF	0.52266 ± 0.0005
RVKRTGLGVWGF	0.649 ± 0.033
RVLCLCATSKSR	0.672 ± 0.016
RVPGGLPCRPSL	0.775 ± 0.041
RVQLPSRITQKA	0.596 ± 0.023
RVQMTTHGCLIS	0.766 ± 0.15
RVRLSLDSPLGL	0.684 ± 0.044
RVVHKIFGRRVT	0.6873 ± 0.0049
RVWNRHWMGASS	0.776 ± 0.084
RVWSMYCSEANG	0.666 ± 0.017
RVWYNVGEGPVR	0.699 ± 0.0085
RWAQVAEGGEGR	0.732 ± 0.099
RWARGGSRGGGG	0.703 ± 0.044
RWCEWYDMNTII	0.636 ± 0.02
RWGVFRSLPSPS	0.622 ± 0.17
RWGVGGSVSFWW	0.7 ± 0.047
RWGVRGAIHSDL	0.6841 ± 0.0065
RWSVIHARLLSP	0.846 ± 0.19
RWSYCLVFSLGL	0.532 ± 0.015
RWTLMMAIIRQR	0.559 ± 0.024
RWWGDEAHRDGA	0.81 ± 0.049
RYANGVLHIGSN	0.659 ± 0.042

Sequence	protein stability index
RYCIRDNKSNRN	0.705 ± 0.051
RYENRGRMKRER	0.676 ± 0.042
RYKCSQWHNGLT	0.767 ± 0.048
RYKSVPLHCISN	0.671 ± 0.022
RYNPPRGIHNDL	0.651 ± 0.043
RYPSRGQFGPSP	0.691 ± 0.019
RYRGPIPHEHTC	0.652 ± 0.085
RYSLMRAVRDRL	0.775 ± 0.17
SAASLWSGFRYG	0.68 ± 0.0085
SACAPSPPSPSP	0.749 ± 0.015
SACRSVPGYVAG	0.672 ± 0.046
SAFLSFLRLVFL	0.632 ± 0.011
SAFLSFPFLSPF	0.705 ± 0.011
SAGIRPFIQVHI	0.653 ± 0.019
SAGLLFFSFPPL	0.7873 ± 0.0067
SAGYFYSWNSSD	0.708 ± 0.028
SAIALGCEGVYP	0.6853 ± 0.0012
SAMIKRIIGMHY	0.634 ± 0.048
SANSGVRHMHFW	0.729 ± 0.058
SAPAFPPRPPPT	0.675 ± 0.025
